Experimental data from patent US20100260765A1 (AstraZeneca / MedImmune, published 2010).
Positions count from the first letter of the chain named.

B1: 22B8 (antibody, V domains shown)
VH: QLQLQESGPGLVKPSETLSLTCTVSGGSISSRYYYWGWVRQPPGKGLEWIGTIYYSGHTYYNPSLKTRVTISVDTSKNQFSLKLISVTAADTAVYYCATQQLVLYYFDFWGQGTLVTVSS
VL: EIVLTQSPGTLSLSPGERAALSCRASQSISSSYLAWYQQRPGQAPRLLIYGASSRATGIPDRFNGSGSGTDFTLTISRLEPEDFAVYYCQQFGSSITFGQGTRLEIK
notes: Fully human monoclonal antibody from a XenoMouse hybridoma (IgG2 or IgG4 strain), purified
B2: 33C3 (antibody, V domains shown)
VH: QVQLVESGGGLVKPGESLRLSCAASGFTFSDYYMSWIRQAPGKGLEWVSYISHGGSTIYYADSVKGRFTISRDNAKNSLYLQMNSLRVEDTAVYFCARDDFWSGYYFNWFDPWGQGALVTVSS
VL: DIQMTQYPLSLSASVGDRVTITCRASQSISSFLNWYHQKPGKAPKLLIYGTSSLQSGVPSRFSGSGSGTDFTLTISSLQPEDFATYYCQQTYSIPLTFGGGTNVEIK
notes: Purified fully human monoclonal antibody from XenoMouse hybridoma (IgG2 or IgG4 strains); also called MAb 33C3
B3: 31E11 (antibody, V domains shown)
VH: B2 VH with E16G, H53I, G54S, V88A, F95Y, A117T
VL: DIQMTQSPSSLSASVGDRVTITCRANQTISTFLNWYQQNPGKAPKLLIYAASSLQSGVPSRFSGSGSGTDFTLTISSLQPEDFATYYCQQTYIIPLTFGGGTKVEIK
notes: as for B1
B4: 33C3 (antibody, V domains shown)
VH: B2 VH
VL: B2 VL
notes: as for B1

Tests used:
[1] = target: T1, whole KDR-ECD (Cat. # 676490, Calbiochem) (human, UniProt P35968 20-764); test: ELISA, KDR-ECD coat 5 ug/mL, antibody 0.1 ug/mL
T1 construct: extracellular domain; Bought soluble protein; also called soluble KDR; VEGF Receptor 2 D1-7
How it was run: (§1)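 Coat wells with the recombinant receptor protein, add purified antibody, then detect the bound antibody by ELISA. Isotype IgG1 and IgG4 are run alongside as controls.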

human KDR [2] = target: T2, human KDR (human, UniProt P35968 20-1356); test: FACS titration of purified antibody on HUVEC cells (FACS Kd)
T2 construct: whole, on cells; also called VEGFR2; endogenously-expressed KDR in HUVEC cells
Protocol: The binding affinities of the purified antibodies for endogenously-expressed KDR in HUVEC cells was measured. HUVEC cells were seeded at 150,000 cells/well and incubated with titrations of purified antibody for 4 hours at 4° C. The cells were then washed and incubated with goat anti-human IgG-Fc-Cy5+5 μg/mL 7-Amino-Actinomycin (7AAD) for 30 minutes at 4° C. Bound KDR was detected using FACS analysis.

human KDR [3] = target: T2, human KDR; test: FACS competition on 293T/human KDR transfectants; antibody 5 ug/mL first, then competitor VEGF165 50 ng/mL; bound VEGF165 detected
Protocol: (§2) Transfected cells were then seeded at 50,000 cells/well and incubated with 5 μg/mL of candidate antibody for one hour at 4° C. […] After washing, the cells were incubated with Cy5-conjugated rabbit anti-goat antibody plus 7AAD for 15 minutes at 4° C.

[4] = target: T3, mouse KDR (Flk-1)/Fc (Cat. #443-KD/CF, R&D Systems, Inc.) (mouse, UniProt P35918 20-762); test: ELISA, Flk-1 coat 5 ug/mL, antibody 0.1 ug/mL
T3 construct: Bought reagent; also called mouse VEGFR2; KDR mouse ortholog; not shown: Fc of the bought fusion protein
How it was run: (§3)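 Purified antibodies were tested by ELISA for binding to immobilised target protein to assess cross-reactivity with the mouse ortholog and binding to the soluble Ig4-7 fragment. IgG1 and IgG4 isotype antibodies served as controls.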

human KDR [5] = target: T2, human KDR; test: FACS competition on 293T/human KDR transfectants; antibody 5 ug/mL first, then competitor VEGF165 50 ng/mL; inhibition of VEGF binding
Protocol: as §2

human KDR [6] = target: T2, human KDR; test: cell-based or functional assay
soluble KDR Ig4-7 domain [7] = target: T4, soluble KDR Ig4-7 domain (human, UniProt P35968 328-764); test: ELISA, KDR Ig4-7 coat (1:1 diln.), antibody 0.1 ug/mL
T4 construct: domain: Ig4-7 domain; also called b-KDRIg4-7-myc-his; Ig4-7 domain of KDR; not shown: myc-his tag of the pSecTag construct
How it was run: as §3

[8] = target: T1, whole KDR-ECD (Cat. # 676490, …); test: ELISA, KDR-ECD coat 5 ug/mL, antibody 1 ug/mL
How it was run: as §1

soluble KDR Ig4-7 domain [9] = target: T4, soluble KDR Ig4-7 domain; test: ELISA, KDR Ig4-7 coat (1:1 diln.), antibody 1 ug/mL
How it was run: as §3

[10] = target: T3, mouse KDR (Flk-1)/Fc (Cat. #443-KD/CF, …); test: ELISA, Flk-1 coat 5 ug/mL, antibody 0.01 ug/mL
How it was run: as §3

cynomolgus KDR = target: T5, cynomolgus KDR (cynomolgus monkey, UniProt A0A2K5VE63 20-1356); test: FACS on Cyno KDR/293T transfectants, antibody 5 ug/mL
T5 construct: whole, on cells; also called Cyno KDR

[11] = target: T3, mouse KDR (Flk-1)/Fc (Cat. #443-KD/CF, …); test: ELISA, Flk-1 coat 5 ug/mL, antibody 1 ug/mL
How it was run: as §3

human KDR [12] = target: T2, human KDR; test: cell-based or functional assay; remark: listed apart in the source
human KDR [13] = target: T2, human KDR; test: cell-based or functional assay; remark: listed apart in the source
soluble KDR Ig4-7 domain [14] = target: T4, soluble KDR Ig4-7 domain; test: ELISA, KDR Ig4-7 coat (1:1 diln.), antibody 0.01 ug/mL
How it was run: as §3

[15] = target: T1, whole KDR-ECD (Cat. # 676490, …); test: ELISA, KDR-ECD coat 5 ug/mL, antibody 0.01 ug/mL
How it was run: as §1

human KDR on cells = human KDR on cells (human, UniProt P35968 20-1356); test: cell-based or functional assay
[16] = target: T6, KDR (antigen used as analyte in the Biacore assay) (UniProt P35968 20-764, limits assumed); test: SPR, Biacore 2000; antibody amine-coupled on CM4 chip, KDR as analyte; global 1:1 fit; 23 C
T6 construct: also called the antigen KDR
Protocol: Each purified anti-KDR antibody was immobilized on a CM4 sensor chip within a Biacore 2000 using standard amine coupling. Immobilization levels were kept between 250 and 350 RU. The concentration of KDR was determined by UV-VIS spectroscopy using a molar absorptivity at 280 nm of 110, 440 M⁻¹ cm⁻¹, which was calculated from the sequence of the protein using a method developed by Pace et al. (G. R. Grimsley and C. N. Pace (2003) in Current Protocols in Protein Science (John Wiley & Sons, Inc.), 3.1.1-3.1.9). The antigen KDR was diluted to a starting concentration of 52 nM and tested in a 3-fold dilution series in triplicate. The running buffer contained HBS-P with 0.1 mg/ml BSA and binding responses were collected at 23 degrees C. […] The response data were globally fit with a simple 1:1 interaction model. The number shown in parentheses is the standard error in the last significant figure.

T5 sequence (A0A2K5VE63 entry or part of it): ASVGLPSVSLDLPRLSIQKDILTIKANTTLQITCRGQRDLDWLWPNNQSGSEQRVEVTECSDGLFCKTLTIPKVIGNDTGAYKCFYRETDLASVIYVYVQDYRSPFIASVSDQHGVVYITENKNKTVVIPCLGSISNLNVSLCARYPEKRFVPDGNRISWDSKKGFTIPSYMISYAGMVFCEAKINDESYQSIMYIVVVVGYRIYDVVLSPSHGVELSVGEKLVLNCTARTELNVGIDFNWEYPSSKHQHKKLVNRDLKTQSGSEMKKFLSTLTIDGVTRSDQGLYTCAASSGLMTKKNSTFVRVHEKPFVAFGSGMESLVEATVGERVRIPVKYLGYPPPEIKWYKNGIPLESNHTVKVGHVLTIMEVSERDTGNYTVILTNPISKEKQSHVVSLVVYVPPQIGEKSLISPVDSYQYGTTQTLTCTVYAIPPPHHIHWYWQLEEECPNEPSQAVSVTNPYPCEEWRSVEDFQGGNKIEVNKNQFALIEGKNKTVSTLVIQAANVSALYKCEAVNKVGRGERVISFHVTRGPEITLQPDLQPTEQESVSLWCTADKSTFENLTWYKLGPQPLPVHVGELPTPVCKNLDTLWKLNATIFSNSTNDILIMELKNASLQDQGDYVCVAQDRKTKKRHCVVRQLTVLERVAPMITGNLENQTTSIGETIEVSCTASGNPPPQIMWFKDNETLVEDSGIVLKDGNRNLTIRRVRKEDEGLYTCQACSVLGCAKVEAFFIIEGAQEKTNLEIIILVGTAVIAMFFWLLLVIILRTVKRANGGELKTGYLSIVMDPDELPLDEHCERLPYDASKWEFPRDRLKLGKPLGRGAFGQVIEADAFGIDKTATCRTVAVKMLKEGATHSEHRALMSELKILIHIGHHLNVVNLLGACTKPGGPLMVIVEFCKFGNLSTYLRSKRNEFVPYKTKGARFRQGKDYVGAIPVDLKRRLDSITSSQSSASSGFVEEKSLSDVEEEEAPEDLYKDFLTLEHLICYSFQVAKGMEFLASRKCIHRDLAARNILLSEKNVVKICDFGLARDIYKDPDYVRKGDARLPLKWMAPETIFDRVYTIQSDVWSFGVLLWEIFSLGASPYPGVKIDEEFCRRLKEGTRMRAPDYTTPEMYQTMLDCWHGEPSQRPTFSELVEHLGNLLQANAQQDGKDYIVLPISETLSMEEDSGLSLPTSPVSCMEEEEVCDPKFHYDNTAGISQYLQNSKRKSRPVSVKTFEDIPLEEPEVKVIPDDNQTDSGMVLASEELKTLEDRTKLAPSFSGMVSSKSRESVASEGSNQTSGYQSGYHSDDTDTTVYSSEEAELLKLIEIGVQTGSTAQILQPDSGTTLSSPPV
T1 sequence (P35968 20-764): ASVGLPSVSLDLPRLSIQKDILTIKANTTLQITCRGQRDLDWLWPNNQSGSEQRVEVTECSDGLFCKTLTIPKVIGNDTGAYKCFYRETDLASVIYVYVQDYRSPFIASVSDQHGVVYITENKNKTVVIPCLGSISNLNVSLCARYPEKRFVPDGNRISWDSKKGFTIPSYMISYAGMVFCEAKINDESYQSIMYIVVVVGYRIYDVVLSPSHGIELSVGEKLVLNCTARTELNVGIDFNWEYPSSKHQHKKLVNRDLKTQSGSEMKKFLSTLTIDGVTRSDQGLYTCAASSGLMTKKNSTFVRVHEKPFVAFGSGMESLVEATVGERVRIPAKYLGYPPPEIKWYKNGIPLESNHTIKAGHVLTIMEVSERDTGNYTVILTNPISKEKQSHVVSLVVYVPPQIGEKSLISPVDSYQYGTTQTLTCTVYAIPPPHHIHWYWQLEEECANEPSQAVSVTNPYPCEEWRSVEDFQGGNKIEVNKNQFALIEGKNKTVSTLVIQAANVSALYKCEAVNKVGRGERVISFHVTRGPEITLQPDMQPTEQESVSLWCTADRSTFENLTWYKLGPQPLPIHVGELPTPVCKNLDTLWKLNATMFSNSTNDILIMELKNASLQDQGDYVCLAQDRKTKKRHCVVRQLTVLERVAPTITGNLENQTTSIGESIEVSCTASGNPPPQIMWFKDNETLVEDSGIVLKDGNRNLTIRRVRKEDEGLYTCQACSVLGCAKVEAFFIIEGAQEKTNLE
T6 sequence (P35968 20-764 limits assumed): as the sequence (P35968 20-764) above
human KDR on cells, sequence (P35968 20-1356): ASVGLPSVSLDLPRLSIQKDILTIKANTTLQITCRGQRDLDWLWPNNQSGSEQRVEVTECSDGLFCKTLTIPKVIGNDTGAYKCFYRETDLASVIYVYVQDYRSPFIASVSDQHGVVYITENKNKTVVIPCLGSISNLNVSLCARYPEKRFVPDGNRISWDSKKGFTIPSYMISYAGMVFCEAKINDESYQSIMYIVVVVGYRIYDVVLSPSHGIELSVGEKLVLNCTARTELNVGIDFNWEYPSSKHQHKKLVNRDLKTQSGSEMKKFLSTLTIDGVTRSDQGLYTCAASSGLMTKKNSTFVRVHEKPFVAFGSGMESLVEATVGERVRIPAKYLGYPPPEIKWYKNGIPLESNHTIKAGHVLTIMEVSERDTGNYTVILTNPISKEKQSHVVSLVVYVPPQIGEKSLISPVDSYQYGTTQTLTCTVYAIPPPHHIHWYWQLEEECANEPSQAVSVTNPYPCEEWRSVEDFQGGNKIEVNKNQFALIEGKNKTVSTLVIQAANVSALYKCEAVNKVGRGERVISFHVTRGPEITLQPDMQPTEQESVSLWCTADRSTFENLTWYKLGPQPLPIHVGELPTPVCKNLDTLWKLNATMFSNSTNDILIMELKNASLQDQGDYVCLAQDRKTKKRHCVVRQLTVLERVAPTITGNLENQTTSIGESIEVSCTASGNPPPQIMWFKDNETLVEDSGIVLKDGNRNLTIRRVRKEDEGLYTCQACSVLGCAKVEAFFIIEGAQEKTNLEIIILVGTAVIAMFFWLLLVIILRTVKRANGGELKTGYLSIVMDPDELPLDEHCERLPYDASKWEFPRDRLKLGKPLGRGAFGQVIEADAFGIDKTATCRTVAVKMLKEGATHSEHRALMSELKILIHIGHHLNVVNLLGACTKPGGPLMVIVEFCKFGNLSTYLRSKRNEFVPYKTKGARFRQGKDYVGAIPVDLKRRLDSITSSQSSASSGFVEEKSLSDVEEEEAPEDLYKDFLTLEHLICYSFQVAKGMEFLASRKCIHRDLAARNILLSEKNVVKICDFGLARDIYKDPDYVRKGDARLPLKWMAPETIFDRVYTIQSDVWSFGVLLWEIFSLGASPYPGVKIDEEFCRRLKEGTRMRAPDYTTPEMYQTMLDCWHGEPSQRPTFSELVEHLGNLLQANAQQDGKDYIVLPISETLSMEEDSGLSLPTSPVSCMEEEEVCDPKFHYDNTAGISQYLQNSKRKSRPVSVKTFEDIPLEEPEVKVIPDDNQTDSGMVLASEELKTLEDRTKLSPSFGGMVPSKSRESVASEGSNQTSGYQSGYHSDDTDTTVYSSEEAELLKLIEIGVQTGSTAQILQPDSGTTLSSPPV
T2 sequence (P35968 20-1356): as above
T3 sequence (P35918 20-762 limits assumed): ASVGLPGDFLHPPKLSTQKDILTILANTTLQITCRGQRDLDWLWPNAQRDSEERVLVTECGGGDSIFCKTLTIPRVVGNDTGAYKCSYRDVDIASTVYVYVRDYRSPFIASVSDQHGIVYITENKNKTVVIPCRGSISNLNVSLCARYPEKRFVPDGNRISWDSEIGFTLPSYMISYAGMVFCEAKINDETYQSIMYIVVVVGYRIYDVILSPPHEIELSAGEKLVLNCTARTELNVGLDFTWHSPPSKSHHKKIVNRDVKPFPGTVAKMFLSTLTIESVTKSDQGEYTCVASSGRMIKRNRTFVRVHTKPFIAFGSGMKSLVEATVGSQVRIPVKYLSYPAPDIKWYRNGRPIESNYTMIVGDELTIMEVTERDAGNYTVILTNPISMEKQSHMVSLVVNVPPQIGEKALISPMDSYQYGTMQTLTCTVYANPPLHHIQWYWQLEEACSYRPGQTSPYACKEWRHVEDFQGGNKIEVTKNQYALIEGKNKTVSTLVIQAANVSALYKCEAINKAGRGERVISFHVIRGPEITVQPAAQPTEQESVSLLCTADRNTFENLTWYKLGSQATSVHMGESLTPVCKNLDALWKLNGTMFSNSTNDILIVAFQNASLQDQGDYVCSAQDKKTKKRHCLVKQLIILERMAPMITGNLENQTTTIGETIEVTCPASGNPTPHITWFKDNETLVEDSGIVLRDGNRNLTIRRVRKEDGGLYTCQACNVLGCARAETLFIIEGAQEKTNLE
T4 sequence (P35968 328-764): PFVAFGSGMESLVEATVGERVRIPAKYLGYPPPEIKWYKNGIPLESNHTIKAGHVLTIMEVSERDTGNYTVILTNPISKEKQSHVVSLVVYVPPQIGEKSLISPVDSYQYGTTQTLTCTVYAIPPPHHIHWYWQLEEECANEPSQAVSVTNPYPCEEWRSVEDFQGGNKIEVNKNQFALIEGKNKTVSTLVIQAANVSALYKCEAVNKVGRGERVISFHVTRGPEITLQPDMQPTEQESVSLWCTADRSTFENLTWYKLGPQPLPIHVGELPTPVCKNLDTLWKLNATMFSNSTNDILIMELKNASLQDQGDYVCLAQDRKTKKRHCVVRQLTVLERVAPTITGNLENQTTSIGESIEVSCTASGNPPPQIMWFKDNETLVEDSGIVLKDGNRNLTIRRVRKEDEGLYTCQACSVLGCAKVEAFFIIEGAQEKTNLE

Row | Binder | ELISA reading [1] | Kd (human KDR [2]) [nM] | FACS Geometric Mean Fluorescence (bound VEGF165) (human KDR [3]) | ELISA reading [4] | % Inhibition (human KDR [5]) [%] | HUVEC survival, Maximum Inhibition at 50 nM (% Inhibition), Average (human KDR [6]) [%] | HUVEC survival, Maximum Inhibition at 50 nM (% Inhibition), N = 1 (human KDR [6]) [%] | HUVEC survival, Maximum Inhibition at 50 nM (% Inhibition), N = 2 (human KDR [6]) [%] | ELISA reading (soluble KDR Ig4-7 domain [7]) | ELISA reading [8] | ELISA reading (soluble KDR Ig4-7 domain [9]) | ELISA reading [10] | FACS Geometric Mean Fluorescence (cynomolgus KDR) | ELISA reading [11] | KDR tyrosine phosphorylation in HUVEC, EC50 (nM), Average (human KDR [12]) [nM] | KDR tyrosine phosphorylation in HUVEC, EC50 (nM), N = 1 (human KDR [12]) [nM] | KDR tyrosine phosphorylation in HUVEC, EC50 (nM), N = 2 (human KDR [12]) [nM] | KDR tyrosine phosphorylation in HUVEC, Maximum Inhibition at 100 nM (% Inhibition), Average (human KDR [12]) [%] | KDR tyrosine phosphorylation in HUVEC, Maximum Inhibition at 100 nM (% Inhibition), N = 1 (human KDR [12]) [%] | KDR tyrosine phosphorylation in HUVEC, Maximum Inhibition at 100 nM (% Inhibition), N = 2 (human KDR [12]) [%] | also measured
1 | B1 | 0.089 | 1.8 | 120 | 2.94 | 7 | 87 | 80 | 95 | 0.078 | 1.91 | 0.08 | 1.2 | 103 | 3.21 | 3.1 | 2.7 | 3.4 | 77 | 75 | 79 | 6-keto Prostaglandin F1α release, EC50 (nM), Average (human KDR [13]): 5.3 nM; 6-keto Prostaglandin F1α release, EC50 (nM), N = 1 (human KDR [13]): 5.1 nM; 6-keto Prostaglandin F1α release, EC50 (nM), N = 2 (human KDR [13]): 5.6 nM; 6-keto Prostaglandin F1α release, Maximum Inhibition (% Inhibition), Average (human KDR [13]): 70%; 6-keto Prostaglandin F1α release, Maximum Inhibition (% Inhibition), N = 1 (200 nM) (human KDR [13]): 63%; 6-keto Prostaglandin F1α release, Maximum Inhibition (% Inhibition), N = 2 (333 nM) (human KDR [13]): 76%; ELISA reading (soluble KDR Ig4-7 domain [14]): 0.074; ELISA reading [15]: 0.075
2 | B2 |  |  |  |  |  |  |  |  |  |  |  |  |  |  |  |  |  |  |  |  | % Inhibition (Average) of VEGF-C-mediated KDR activity, antibody 1 nM (human KDR on cells): 66%; % Inhibition (Average) of VEGF-C-mediated KDR activity, antibody 10 nM (human KDR on cells): 88%; % Inhibition (Average) of VEGF-C-mediated KDR activity, antibody 100 nM (human KDR on cells): 85%; % Inhibition (N = 1) of VEGF-C-mediated KDR activity, antibody 1 nM (human KDR on cells): 71%; % Inhibition (N = 1) of VEGF-C-mediated KDR activity, antibody 10 nM (human KDR on cells): 87%; % Inhibition (N = 1) of VEGF-C-mediated KDR activity, antibody 100 nM (human KDR on cells): 84%; % Inhibition (N = 2) of VEGF-C-mediated KDR activity, antibody 1 nM (human KDR on cells): 61%; % Inhibition (N = 2) of VEGF-C-mediated KDR activity, antibody 10 nM (human KDR on cells): 89%; % Inhibition (N = 2) of VEGF-C-mediated KDR activity, antibody 100 nM (human KDR on cells): 86%; Kd [16]: 0.91 nM; koff [16]: 9.3e-05 s⁻¹; kon [16]: 102000 M⁻¹ s⁻¹
3 | B3 | 0.161 | 11.3 | 138 | 2.37 | -8 | 101 | 101 | 101 | 0.073 | 1.96 | 0.107 | 0.826 | 99.5 | 3.1 | 1.9 | 2 | 1.9 | 85 | 84 | 86 | 6-keto Prostaglandin F1α release, EC50 (nM), Average (human KDR [13]): 6.2 nM; 6-keto Prostaglandin F1α release, EC50 (nM), N = 1 (human KDR [13]): 6.1 nM; 6-keto Prostaglandin F1α release, EC50 (nM), N = 2 (human KDR [13]): 6.4 nM; 6-keto Prostaglandin F1α release, Maximum Inhibition (% Inhibition), Average (human KDR [13]): 98%; 6-keto Prostaglandin F1α release, Maximum Inhibition (% Inhibition), N = 1 (200 nM) (human KDR [13]): 88%; 6-keto Prostaglandin F1α release, Maximum Inhibition (% Inhibition), N = 2 (333 nM) (human KDR [13]): 108%; ELISA reading (soluble KDR Ig4-7 domain [14]): 0.072; ELISA reading [15]: 0.08
4 | B4 | 0.153 | 1 | 126 | 3.04 | 2 | 101 | 106 | 95 | 0.088 | 1.11 | 0.094 | 1.25 | 108 | 3.48 | 1.2 | 1.2 | 1.1 | 85 | 83 | 86 | 6-keto Prostaglandin F1α release, EC50 (nM), Average (human KDR [13]): 3.9 nM; 6-keto Prostaglandin F1α release, EC50 (nM), N = 1 (human KDR [13]): 3.5 nM; 6-keto Prostaglandin F1α release, EC50 (nM), N = 2 (human KDR [13]): 4.4 nM; 6-keto Prostaglandin F1α release, Maximum Inhibition (% Inhibition), Average (human KDR [13]): 85%; 6-keto Prostaglandin F1α release, Maximum Inhibition (% Inhibition), N = 1 (200 nM) (human KDR [13]): 76%; 6-keto Prostaglandin F1α release, Maximum Inhibition (% Inhibition), N = 2 (333 nM) (human KDR [13]): 94%; ELISA reading (soluble KDR Ig4-7 domain [14]): 0.073; ELISA reading [15]: 0.09
